In general, EC50 refers to the concentration at which the effect is half-maximal. Higher therefore signals a need for much substance.

We go through three molecules from patent US20260166139A1.

For test [1], the target named is murine CTLA4 (murine) (UniProt P09793). Nature of the test: ELISA on coated CTLA4, source Mouse. Background: An ELISA detects its analyte on a solid surface through an enzyme-linked reagent.
The target is the same in test [2]. Briefly: ELISA, coat murine CTLA4 0.5 ug/ml; antibody 1 ug/ml.
The target is the same in test [3]. Briefly: ELISA, coat murine CTLA4 0.5 ug/ml; antibody 0.1 ug/ml.
For test [4] the target is unchanged. Nature of the test: ELISA, coat murine CTLA4 0.5 ug/ml; antibody 0.3 ug/ml.
Test [5] shares this target. Briefly: ELISA, coat murine CTLA4 0.5 ug/ml; antibody 0.01 ug/ml.
For test [6] the target is unchanged. Briefly: ELISA, coat murine CTLA4 0.5 ug/ml; antibody 0.03 ug/ml.
The target is the same in test [7]. Briefly: ELISA, coat murine CTLA4 0.5 ug/ml; antibody 0.001 ug/ml.
Test [8] shares this target. Briefly: ELISA, coat murine CTLA4 0.5 ug/ml; antibody 0.003 ug/ml.
For test [9] the target is unchanged. Nature of the test: ELISA, coat murine CTLA4 0.5 ug/ml; antibody 0 ug/ml (blank).
Test [10] has the same target. Nature of the test: ELISA on coated CTLA4, source taken as Mouse; second unlabelled line under 8D2 / Mouse; the run in which 10D1 gave […] and 11.2.1 was not measured.
For test [11] the target is unchanged. Briefly: ELISA on coated CTLA4, source taken as Mouse.

Where “and” joins values, the source holds several entries; their conditions need not be identical. Equal entries are not always repeated.

B1: humanized antibody 8D2H1L1 (antibody, V domains shown)
VH: EVQLVESGGGLVQPGGSMRLSCAASGFTFSDNWMNWVRQAPGKGLEWLAQIRNKPYNYETYYSDSVKGRFTISRDDSKNSVYLQMNSLKTEDTGVYYCTAQFAYWGQGTLVTVSS
VL: DIQMTQSPSSLSASVGDRVTITCRTSENIYGGLNWYQRKQGKSPKLLIYGATNLASGMSSRFSGSGSGTDYTLKISSLHPDDVATYYCQNVLRSPFTFGSGTKLEIK
For the molecule B1, the EC50 with murine CTLA4 (murine) [1] is 25 pM.

B2: monoclonal antibody 8D2 (antibody, V domains shown)
VH: EVKLDETGGGLVQPGRPMKLSCVASGFTFSDNWMNWVRQSPEKGLEWLAQIRNKPYNYETYYSDSVKGRFTISRDDSKSSVYLQMNNLRGEDMGIYYCTAQFAYWGQGTLVTVSA
VL: DIQMTQSPASLSASVGETVTITCGTSENIYGGLNWYQRKQGKSPQLLIFGATNLADGMSSRFSGSGSGRQYSLKISSLHPDDVATYYCQNVLRSPFTFGSGTKLEI
With B2, the figures for the EC50 in the test with murine CTLA4 (murine) [1] and in the test with murine CTLA4 (murine) [10] were 15 pM and 71 pM, respectively. For the same molecule, the absorbance at 450 nm is 2.82 and 2.68 with murine CTLA4 (murine) [2]; 2.75 and 2.72 with murine CTLA4 (murine) [3]; 2.81 and 2.76 with murine CTLA4 (murine) [4]; 1.61 and 1.56 with murine CTLA4 (murine) [5]; 2.34 and 2.38 in the test with murine CTLA4 (murine) [6]; 0.358 and 0.355 with murine CTLA4 (murine) [7]. For the same molecule, the absorbance at 450 nm with murine CTLA4 (murine) [8] is 0.784 and 0.76; with murine CTLA4 (murine) [9], 0.063 and 0.052.

B3: 8D2 recombinant antibody, 8D2(Re) (antibody, V domains shown)
VH: EVKLDETGGGLVQPGRPMKLSCVASGFTFSDNWMNWVRQSPEKGLEWLAQIRNKPYNYETYYSDSVKGRFTISRDDSKSSVYLQMNNLRGEDMGIYYCTAQFAYWGQGTLVTVSA
VL: DIQMTQSPASLSASVGETVTITCGTSENIYGGLNWYQRKQGKSPQLLIFGATNLADGMSSRFSGSGSGRQYSLKISSLHPDDVATYYCQNVLRSPFTFGSGTKLEI
For B3, the EC50 with murine CTLA4 (murine) [1] amounted to 15 pM; with murine CTLA4 (murine) [11], 85 pM. Also, the absorbance at 450 nm in the test with murine CTLA4 (murine) [2] is 2.67 and 2.77; with murine CTLA4 (murine) [3], 2.8 and 2.69; in the test with murine CTLA4 (murine) [4], 2.69 and 2.73; in the test with murine CTLA4 (murine) [5], 1.4 and 1.45; in the test with murine CTLA4 (murine) [6] it was 2.31 and 2.26; with murine CTLA4 (murine) [7], 0.315 and 0.321. The absorbance at 450 nm was 0.662 and 0.674 in the test with murine CTLA4 (murine) [8]; 0.053 and 0.046 in the test with murine CTLA4 (murine) [9].
